One block for each binder: values may come before it. Where no end group is shown, it is not given here.
How the values were obtained:
[1] = target: T1, Human TNFR1 (soluble) recombinant protein (human, UniProt P19438 42-181, fluorescent label from the Monolith Protein Labeling Kit RED-NHS 2nd Generation (labelled target in MST)); test: MST; labelled TNFR1 or TNFR2 (RED-NHS 2nd Generation) at 20 nM, peptide titrated in 16 serial dilutions, PBS, 20 min incubation in the dark, Monolith NT.115 Pico, medium MST power; settings: both partners purified
T1 construct: human TNF receptor 1, soluble recombinant form; also called TNF receptor 1; sTNFR1; source: bought: PeproTech
T1 sequence: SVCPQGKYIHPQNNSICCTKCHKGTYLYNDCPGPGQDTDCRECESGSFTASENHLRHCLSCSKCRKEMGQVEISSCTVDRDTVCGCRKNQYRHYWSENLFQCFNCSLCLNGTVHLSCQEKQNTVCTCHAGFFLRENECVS

[2] = target: T2, Human TNFR2 (soluble) recombinant protein (human, UniProt P20333 33-205, fluorescent label from the Monolith Protein Labeling Kit RED-NHS 2nd Generation (labelled target in MST)); test: as above; settings: both partners purified
T2 construct: human TNF receptor 2, soluble recombinant form; also called TNF receptor 2; p80; source: bought: PeproTech
T2 sequence: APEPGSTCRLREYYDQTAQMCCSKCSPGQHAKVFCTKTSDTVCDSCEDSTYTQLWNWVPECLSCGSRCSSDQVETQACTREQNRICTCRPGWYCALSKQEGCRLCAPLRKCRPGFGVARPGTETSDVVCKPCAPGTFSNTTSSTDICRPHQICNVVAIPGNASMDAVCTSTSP

Kd [1]: 8.6 µM
B1: OB7 peptide (peptide)
peptide: VLLTHTISRIAVSYQTKVNLL
notes: Synthesised on Rink amide resin, so probably with a C-terminal amide (stated only for OB5); 21 residues as printed; source: synthetic peptide (SPPS, Rink amide resin, HPLC purified)

Kd [1]: 0.204 µM
B2: OB5 peptide (peptide)
peptide: NHQVEEQLEWLSQRA-NH2
notes: 15-residue stretch of mouse TNF-α predicted with Rosetta Peptiderive from the mouse TNF-α-human TNFR1 complex; source: synthetic peptide (SPPS, Rink amide resin, HPLC purified)

Kd [2]: 3.9 µM
B3: OB6 peptide (peptide)
peptide: NPQAEGQLQWLNRRA
notes: 15-residue stretch of human TNF predicted with Rosetta Peptiderive from the TNF-TNFR2 complex; Synthesised on Rink amide resin, so probably with a C-terminal amide (stated only for OB5); source: synthetic peptide (SPPS, Rink amide resin, HPLC purified)
